Test results: patent US20040014072, “Novel dna synthase” (published 2004)

T1: p46 (Pyrococcus furiosus, UniProt Q8U4H7 SEQ:1-396)
T1 sequence: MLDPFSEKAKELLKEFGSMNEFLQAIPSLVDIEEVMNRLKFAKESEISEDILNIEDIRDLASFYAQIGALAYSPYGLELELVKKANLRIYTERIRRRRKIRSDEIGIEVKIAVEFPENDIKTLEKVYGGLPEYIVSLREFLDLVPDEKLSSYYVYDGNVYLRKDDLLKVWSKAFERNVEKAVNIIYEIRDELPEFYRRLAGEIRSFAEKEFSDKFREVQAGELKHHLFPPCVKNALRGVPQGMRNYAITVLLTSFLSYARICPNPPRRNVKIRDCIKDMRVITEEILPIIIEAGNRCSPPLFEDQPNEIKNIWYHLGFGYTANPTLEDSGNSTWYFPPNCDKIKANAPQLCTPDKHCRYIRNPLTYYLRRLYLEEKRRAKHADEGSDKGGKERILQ

T2: p41-p46 complex (DNA primase/polymerase) (Pyrococcus furiosus, UniProt Q9P9H1;Q8U4H7 SEQ:1-347,SEQ:1-396)
T2 sequence 1: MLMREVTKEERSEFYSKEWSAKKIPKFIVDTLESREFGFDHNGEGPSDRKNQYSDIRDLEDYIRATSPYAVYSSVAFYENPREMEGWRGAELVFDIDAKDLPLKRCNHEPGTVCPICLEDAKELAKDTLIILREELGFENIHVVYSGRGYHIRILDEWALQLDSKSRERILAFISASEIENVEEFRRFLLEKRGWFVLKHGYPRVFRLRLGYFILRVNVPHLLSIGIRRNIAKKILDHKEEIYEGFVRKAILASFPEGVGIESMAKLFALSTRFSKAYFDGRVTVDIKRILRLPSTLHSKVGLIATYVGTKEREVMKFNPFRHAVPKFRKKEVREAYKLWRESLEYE
T2 sequence 2: T1 sequence

T3: p41 (Pyrococcus furiosus, UniProt Q9P9H1 SEQ:1-347)
T3 sequence: T2 sequence 1

B1: 49-mer oligodeoxynucleotide (ssDNA)
DNA: AGCTACCATGCCTGCACGAATTAAGCAATTCGTAATCATGGTCATAGCT
B2: 49-mer annealed to complementary 49-mer (dsDNA)
DNA 1: B1 DNA
DNA 2: AGCTATGACCATGATTACGAATTGCTTAATTCGTGCAGGCATGGTAGCT

Assays:
p46 = biological target: T1, p46; assay: EMSA; no band shift for p46 alone, data not shown; conditions: label: 5'-32P
Description: (§1) The gel-shift assey was used to detect binding activity that binds enzyme to DNA. 49 chain-length oligodeoxynuclotide, 5′-d[…] GCT-3′ was labeled with ³²P at 5′ terminal. Then the chain was used for gel-shift assey with itself or annealed with 49 or 17 chain length complementary oligodeoxynuclotide. With these three kinds of DNA, and the proteins were mixed in variety of concentrations in gel-shift assey buffer (50 mM Tris.Cl, pH8.0, 10 mM MgCl₂, 20 mM KCl, and 1 mM β-mercaptoethanol). The mixtures were left for 5 minutes under temperature of 55° C. and separated by electrophoreting with 1% agarose gel. The gel was processed by 0.1×TAE buffer (4 mM Tris-Acetate, pH8.0, 0.1 mM EDTA) and electrophoreted with same buffer. Autoradiography after the electrophoration was shown in FIG. 5. p41-p46 complex bound to all types of DNA and shifted the band as the complex.

[1] = biological target: T2, p41-p46 complex (DNA primase/polymerase); assay: EMSA; 50 mM Tris-Cl pH 8.0, 10 mM MgCl2, 20 mM KCl, 55 C; conditions: tags: N-terminal His6 on p41, p46 untagged, label: 5'-32P
Description: as §1

p41 = biological target: T3, p41; assay: EMSA; no band shift for p41 alone, data not shown; conditions: tags: N-terminal His6, label: 5'-32P
Description: as §1

Binder | binding result (p46) | binding result [1] | binding result (p41) | binding result (p46; full duplex) | binding result ([1]; full duplex) | binding result (p41; full duplex)
B1 | no binding | binds | no binding | – | – | –
B2 | – | – | – | no binding | binds | no binding
